Assay: yeast display, Sf9 membrane polyspecificity reagent, FACS + sequencing; frameworks hold sequencing errors
Procedure, shortened: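 A synthetic nanobody library was expressed on Saccharomyces cerevisiae BJ5465 by galactose induction for 36–48 hours. The library was stained for 1 hour at 4 °C with 10% biotinylated, detergent-solubilized Sf9 membrane reagent and enriched with streptavidin microbeads before FACS. Low and high (top ~1%) gates were set on anti-HA fluorescence for expression and streptavidin fluorescence for reagent binding, and each polyreactivity label reflects the gate of origin.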

| Sequence | polyreactivity (PSR sort gate) |
| --- | --- |
| QVQLVESGGGLVQAGGSLRLSCAASGFIFRYNAMGWYRQAPGKEREFVAAISQGGASTYYADSVKGRFTISRDNAKNTVYLQMNSLKPEDTAVYYCAREPSIFTPSYDYWGQGTQVTVSS | low polyreactivity |
| QVQLVESGGGLVQAGGSLRLSCAASGSTFGYNAMGWYRQAPGKEREFVASIDARGTSTYYADSVKGRFTISRDNAKNTVYLQMNSLKPEYTAVYYCAADAEFTWSTVRLGWIYIWYEYWGQGTQVTVSS | low polyreactivity |
| QVQLVESGGGLVEAGGSLRLSCAASGSILYYNAMGWYRQAPGKERELVAAISTRGGSTYYADSVKGRFTSSRDNAKKTVYLQMNSLKPEDTAVYYCAADHNVIWGYYYWGQGTQVTVSS | high polyreactivity |
| QVQLVESGGGLVQAGGSLRLSCAASGRIFYVYAMGWYRQAPGKERELVATITYRGDTDYADSVKGRFTSSRDNAKNTVYLQMNSRKPEDTAVYYCAKDFEAGDDYFAYDYWGQGTQVTVSS | low polyreactivity |
| QVQLVESGGGLVQAGGSLRLSCAASGYIVDRNAMGWYRQAPGKERELVAAITKRGGITYYADSVKGRFTISRDNAKNTVYLQMNSLKPEDTAVYYCNALARSSRYDYWGQGTQVTVSS | low polyreactivity |
| QVHLVESGGGEVQAGGSLRLSCAASGRTFYNYAMGWYRQAPGKERELVASIRKNGGSTYYAYSVKGRFSISRDNAKNTVYLQMNSLKPEDTAVYYFAARYWGISRIFPSKYDYWGQGTQVTVSS | high polyreactivity |
| QVQLVESGGGLVQAGGSLRLSCAASGGIFTYYVLGWYRQAPGKERELVAAITIGDSTYYADSVKGRFTISRDNAKNTVYVQINSLKPEDTAVYYCNADPYNTWGFTNGYWGQGTQVTVSS | low polyreactivity |
| QVQLVESGGGLVQAGGSLRLSCAASGFIFYDYAMGWYRQAPGKERELVAAIRSSDGGTYYADSVKGRFTISRDNAKNTVYLQMNSLKPEDTAVYYCAAEIRWGWHPYYDYDEYWGQGTQVTVSS | low polyreactivity |
| QVQLVESGGGLVQAGGSLRLSCAASGSTFDWYTMGWYRQAPGKERELVAAISSGGRTYYADSVKGRFTISRDNAKNTVYLQMNSLKPEDTAVYYCAVAWRVGITKYGYWGQGTQVTVSS | high polyreactivity |
| QVQLVESGGGLVQAGGRLRLSCAASGLIFDYYAMGWYRQAPGKERELVAAISYSGGRTYYADSVKCRFTISRDNAKNTVYLQMNSLKPEDTAVYYCNKVVLQPVIVDHDYWGQGTQVTVSS | low polyreactivity |
| QVQLVESGGGLVQAGGSLRLSCAAYGSIFALYAMGWYRPAPGKERELVARISSGGSTYYADSVKGRFTISRDNAKNTVYLQMNSLKPEDTAVYYCARYHKTHAVLRYDYWGQGTQVTVSS | low polyreactivity |
| QVQLVESGGGLVQAGGSLRISCAASGSTFRYYAMGWYKQAPGKERELVAAITTSGGRTYYADSVKGRFTISRDNAKNTVYLQMNSLKPEDTAVYYCAIRYSTPYLTDNFLSGPGYYYWGQGSQVTVSS | high polyreactivity |
| QVQLVESGGGLVQAGGSLRLSCAASGRIFYTNGMAWYRQAPGKERELVATIRSGDGRTYYADSVKGRFTISRDNAKNTVYLQMNSLKPEDTAVYYCNASRVVYRQAYLYGFDYWGQGTQVTVSS | low polyreactivity |
| QVQLVESGGGIVQAGGSLRLTCAASGRIFYYYAMGWYRQAPGKEREFVAASSRSGGSTYYADSVKGRFTISRDNAKNTVYLQMNSLKPEDTAVYYCNAVRSYRGDFKYDWGQGTQVTVSS | high polyreactivity |
| QVQLVESGGGLVHAGGSLRLSCAASGLTFDWYTMGWYRQAPGKERELVATINSGGSTDYADSVKGRFTISRDNAKNTVYLQMNSLKPEDTAVYYCNAEYGYSGVGDDYWGQGTQVTVSS | low polyreactivity |
| QLQLQESVGGLVQAGGSLRLSCAAIGNIFPTDRMGWYSQSPGKELEFVATISHGGSTNNADSVKGRFTISRDNGKNTVYLKMNSLKPEVTAVYYCAVWSLGRWRNYYWGQGSQVTVSS | low polyreactivity |
| QVQLVESGGGLVQAGGSLRLSCAASGFIFYKYTMGWYRQAPGKERELVAAISTSGGRTYYADSVKGRFTISRDNAKNTVYLQMNSLKPEDTAVYYCAAQYSYPYYKVTLYYWGQGTQVTVSS | high polyreactivity |
| QVQLEESGGGLVQAGGSLRLSCAASGNTFPGYAMGWYRQAPGKERELVARISRSGGSTYYADSVKGRFTISRDNAKKTVYLQMNSLKPEDTAVYYCAAGAYRSGGYSFDYWGQGTQVTVSS | low polyreactivity |
| QVQLVESGGGLVQAGGSLRLSCAASGSTISGYAMGWYRQAPGKEREFVASIRRSGGSTYYADSVKGRFTISRDNAKNTVYLQMNSLKPEDTAVYYCAKRYVVSRGDYWGQGTQVTVSS | high polyreactivity |
| QVQLVDSGGGLVQAGGSLRLSCAASGITFSWYAMGWYRQAPGKERELVAAITRNGGSTYYADSVKGRFTISRDNAKNTVYLLMNSLKPEDTAVYYCNARKKYENYYWGQGTQVTVSS | high polyreactivity |
| QVQLVESGGGLVKAGGSLRLSCAASGRTFYVNAMGWYRQAPGKEREFVAAISRRGGSTYYADSVKGRFTISRDNAKNTVYFQLNSLKPEDTAVYYCATGYHRWSSWALDYWGQGTQVTVSS | high polyreactivity |

| Sequence | polyreactivity (PSR sort gate) |
| --- | --- |
| QVQLVESGGGLVQAGGSLRLSCAASGSIFFLYAMGWYRQAPGKERELVAGINLSGGSTYYADSVKGRFTISRDNAKNTVYLQMNSLKPEDTAVYYCNAYLPSPYSSSYIFDYDSWGQGTQVTVSS | low polyreactivity |
| QVQLVESGGGLVQAGGSLRLSCAASGFTRIYAMGWYRQAPGKEREMVAAISQRGGRTYYADSVKGRFTISRDNAKNTVSLQKNSLKQEDTAVYYCNSDLRSYNYPEYEYDYWGQGTQVTVSS | high polyreactivity |
| QVQLVESGGGLVQAGGSLRLSCAASGSTFQYNVMGWYRPAPGKERELVATISYSSGRTYYADSVKGRFTISRDNAKNTVYLQMNSLKPEDTAVYYCAAAVRLYFWTSAYKYGYWGQGTQVTVSS | high polyreactivity |
| QVQLVESGGGLVQAGGSLRLSCAASGGTFPLYAMGWYRPAPGKERELVAAIRWSGGRTYYADSVKGRFTISRDNAKNTVYLQMNSLKPEDTAVYYCAADYDDGWGYDYWGQGTQVTVSS | high polyreactivity |
| QVQLVESVGGLVQAGGSLRLSCAASGSIFVKNAMGWYRQAPGKEREFVAVISTGDSTHYADSVKGRFTISRDNAKNTVYLQMNSLKPEDTAVYYCAARYYSYGSSYGYWGQGTQVTVSS | high polyreactivity |
| QVQLQESSGGLVQAGGSLRMSCAASGTIFHFHIMGWYRQAPGKVREFVAAISYGTSTYYADSVKGRFTISRDNAKNTVYLLMNRQKPEDTEVYYCAVYEYLEVYCWYWGQGTQGTVSS | low polyreactivity |
| QVQLVESGGGLVQAGGSLRLSCAASGSIFTVNAMGWYRQAPGKERELVATITNGGGTYYADSVKGRFTISRDNAKNTVYLQMNSLKPEDTAVYYCAARTWGHYDYWGQGTQVTVSS | low polyreactivity |
| QVQLVESGGGLVQAGGSLRLTSAASGYIFEEYDMGCYRQAPGKERELVAAIRFSSASTTYADSVKGRFTISRDNAKNTVYLQMNSLKPEDTAVYYCAVKAGDVYSDYDYWGQGTQVTVSS | low polyreactivity |
| QVQLVESGGGLVQAGGSLRLSCAASGSTFTIYAMGWYRQAPGKERELVAAITWNGGSTYYADSVKGRFTISRDNAKKTVYLQMNRLKPEDTAVYYCAAKFRYQYVRVAREYYYWGQGTQVTVSS | high polyreactivity |
| QVQLVESGGRLVQAGGSLRLSCAASGSTFPLYARGWCRQAPGKERELVAAITGGGGRTYYADSVKGRFTISRDNAKNTVYLQMNSLKPEDTGVYYCNAVVYLTNYWYDYWGQGTQVTVSS | low polyreactivity |
| QVQLVESGGGLVQAGGSLRLNCAASGSIFVLYAMGWYRQAPRKERELVAAIRSTGSTNYADSVKGRFTISRDNAKNTVYLQMNSLKPEDTAVYYCAAYRRRTYAVNKEGGYWGQGTQVTVSS | high polyreactivity |
| QVQLVESGGGLVQAGGSLRLSCAASGSIFPSYAMGWYRQAPGKERELVATIGRGGTTNYADSVKGRFTISRDNAKNTVYLQMNSLKPEDTEVYYCNAERIWRYKYGYDYWGQGTQVTVSS | high polyreactivity |
| QVQLVESGGGLVQAGGSLRLSCAASGLTFEWYTMGWYRQAHGKEREMVAVITVSGSSTYYADSVKGRFTISRDNAKNTVYLQMNSLKPEDTAVYYCNADWSFYSYTLYDYWGQGSQVTVSS | low polyreactivity |
| QVQLVESGGGLDQAGGSLRLSCAASGSIFPFYAMGWYRQAPGKERELVAAISSRGGSTYYADSVKGRFTISRDNAKNTVYLQMNSLKPEDTAVYYCAARDYSIKVRLGYWGQGTHVTVSS | low polyreactivity |
| QLQLQESGGGLVQAGGSLRLSCAASAFIFARNYMGWYRQAPGKERELVAGIGVGASTNYADSVKGRFTISRDNAKNTVYLQMNSLEPEDTAVYYCAVGDTVLGYHYYWGQGTQVTVSN | low polyreactivity |
| QVQLVQTGGGLVQAGGSLRLSCAASGSTFWYNAMGWSRQAPGKERELVARISYSGGSTYYADSVKGRFTISRDNAKNTVYLQMNCLKPEDTAVEYCAGRRPYKYDYWGQGTQVTVSS | high polyreactivity |
| QVQLVESGGGLVQAGGSLRLICAASGLIFSYYAMGWYRQAPGKERELVAAISRGGSTNYADSVKGRFTISRDNAKNTVYLQMNSLKPEDTAVYYCAARFVVRRDYGYWGQGTQVTVSS | high polyreactivity |
| QVQLVESGGGLVQAGGSRRLSCAASGRTFSKNAMGWYRQAPGKERELVAAISGSGGSTYYADSVKGRFTISRDNAKNSVYLQMNSLKPEDTAVYYCAADGTGFRYLRYDYWGQGTQVTVSS | high polyreactivity |
| QVQLVESGGGLVQAGGSLRLSCAASGSTFKAYAMGWYRQAPGKERELVAAITRRGTSTYYADSVKGRFTISRDNAKNTVYLQMNSLNPEDTAVYYCNAKYVSDRSSAVSFDYWGQGTQVTVSS | low polyreactivity |
| QVQLVESGGGLVQAGGSLRLSCAASGRMFTYYAMGGYRQAPGKERELVAAINRGVVTTYYADSVKGRFTISRDHAKNTVDLQMNSLKPEDTAVYYCAADWFAANYYVNPVSALDYWGQGTQVTVSS | low polyreactivity |

Reference: the nanobody polyreactivity screen of Harvey et al. (2022)
